This is an account of results in the DeepSol protein solubility set.

The nature of this data set: soluble on expression in E. coli; label from the status in PepcDB or PDB records.
Regarding “MAPSRRERERERRREQIIRAAEKAFFARGYDRVTMDEIAEEAEVNKALLYYYFKNKESLFFAVNLYGVRILHSMYRRCLELDTDGYGKVRAMVEALYSFSKEHPDYFRIYCYSGTERFELSESEDAREIVDLRTGMWRLMVEAIMEGMNDGSIRSDLDPVELSIYIHTLAINALNLDFTSRMVLEARNISRDRFWEDLEVFLESALRP”, the “soluble on expression in E. coli” value was “not soluble”. To “MAPTVERKNINLAPLKAAGVPIFFIVGGPGSGKGTQCDKIVAKYGLTHLSSGDLLRDEVKSGSPRGAQLTAIMESGALVPLEVVLDLVKEAMLKAIEKGSKGFLIDGYPREVAQGQQFESEIQEAKLVLFFDVAEETLVKRLLHRAQTSGRADDNADTIKKRLHTFVTSTAPVVDYYESKGKLVRINAEGSVDDIFAVVVANLDKATSKL” belongs “soluble”. Turning to “MAQERPSCAVEPEHVQRLLLSSREAKKSAYCPYSRFPVGAALLTGDGRIFSGCNIENACYPLGVCAERTAIQKAISEGYKDFRAIAISSDLQEEFISPCGACRQVMREFGTDWAVYMTKPDGTFVVRTVQELLPASFGPEDLQKIQ”, the “soluble on expression in E. coli” value is given as “soluble”. In the case of “MAQFESGVKYVPYSQEQVFNKLSDLSNLESVRDKLADKVQGMEFDSDSLSFTVQGISITLRIIEREPYKCVKFESEKSPVPMNLWIQILPVEAGQAKLKVTIRAEVNMFMKAMVAKPLQDGVDKLAEMLSMIPYLEHHHHHH”, the “soluble on expression in E. coli” value was “soluble”.

As to “MAQGTVEARHGALDEAALGIGRWRWDLRSQELVWSEEERAIFGLAPGAPVPGFAAFSAMIHPDDRARVVAAVSETLAQRRLRHSIGFRILRPDGTMRQILSHGRLVMGLDGKPISLEGVDLDLT”, the “soluble on expression in E. coli” value is on record as “not soluble”. As to “MAQINFEGLRELHDCVNYLLHHCPKTRESLSQQGQEKWTEQVSEASLRMLDICNVSKDVMTLVKHSLQDLQLTLRGNESSDVNEKIAAYNRYKNKLKKETLKCLNCLKNMKGNEGRVAMPIEQNLLFVTEVLKEVRRVVVTMVESLFSLGCIPWLEKRSSKGSLSSIFSIRSSYLLDDEWDETAVQSATTRLEAAEITVVELEIELESIFRRLIQTRVSLLNILTN”, the “soluble on expression in E. coli” value was “soluble”. With “MAQKILVEQVVKRKAIVVQPKDTVDRVAKILSRNKAGSAVVMEGDEILGVVTERDILDKVVAKGKNPKEVKVEEIMTKNPVKIEYDYDIEDVIELMTEKGVRRVLVTKFGKPIGFVTAADILAALASHNHEEEEEEREEESEVYGICEVCGQYGALYKVYHEGRELWVCETCKDLIEGR” the entry was “soluble”; with “MAQNNENALPDITKSITLEAPIQKVWETVSTSEGIAKWFMPNDFQLKEGQEFHLQSPFGPSPCKVLAVQAPTELSFEWDTEGWVVTFQLEDLGEKTGFTLIHSGWKEPNEVIGKANEKSSVVRGKMDGGWTGIVNERLRKAVEELEHHHHHH”, “soluble”. Turning to “MAQPIVVAALYKFVTLEDYVNLREPLLQAMLDNGIKGTLLIAEEGINGTVSGSREGIDGLLAWLKNDPRMVDIDHKESYCDEQPFYRTKVKLKKEIVTLGVPGVDPNKKVGTYVEPQDWNALISDPEVLLIDTRNDYEVSIGTFEGAIDPKTTSFREFPDYIKAHFDPSKHKKVAMFCTGGIRCEKASSYMLSEGFDEVFHLKGGILKYLEEVPQQESKWQGDCFVFDNRVTVRHDLSEGDYDQCHACRTPVSVEDRASEHYVPGISCPHCWDKLSEKTRRSAIDRQKQIELAKARNMPHPIGYNYKQSSSEALEHHHHHH”, the “soluble on expression in E. coli” value is “not soluble”.

On to “MAQSPFRRMTTPGGYQMSVAMTNCGERGWITDHTGYRYDPVDPRTGVPWPAMPPAFRDLARRAAEQGGFTGFAPDACLVNRYEPGTRLSLHQDKDELDYAAPIVSVSLGLPATFLFGGMARSDKPRRFRLVHGDVVVWGGASRLAYHGVAPLADGEHALLGRQRINLTFRKVLLEHHHHHH”, for which the “soluble on expression in E. coli” value was “soluble”. With “MAQTVPYGIPLIKADKVQAQGFKGANVKVAVLDTGIQASHPDLNVVGGASFVAGEAYNTDGNGHGTHVAGTVAALDNTTGVLGVAPSVSLYAVKVLNSSGSGSYSGIVSGIEWATTNGMDVINMSLGGASGSTAMKQAVDNAYARGVVVVAAAGNSGNSGSTNTIGYPAKYDSVIAVGAVDSNSNRASFSSVGAELEVMAPGAGVYSTYPTNTYATLNGTSMASPHVAGAAALILSKHPNLSASQVRNRLSSTATYLGSSFYYGKGLINVEAAAQ” the entry was “soluble”; with “MARAIWKGAISFGLVHIPVALVSATTSNSVDFDWLDKRSMDPVGYKRINKVTGKEVTKENIVKGVLHEKDRYVVLSEEEIRSAHPKSTQTIDIFAFVDSQQIPLQNIDTPYFLTPDKRGEKVYALLRETLVDTQKVALANVVLHTREHLAAVMPLESALVMVILRWPADVRELDALELTEAVTDARLTKSERDMARRLVKDMSADWQPDQYHDTFQEKIMQLVQTKAGEGKIEDVETDPGEEERKSADVIDLTDLLRRSLAGKSSASKTRKPAAKDKVADKQSPKPKRPAVRKKTGKAS”, “not soluble”.

As for “MARDGAVYACQSCGAVQTKWSGQCSACQSWNTLVEEVSAKPPGALSATKATRVRGLQFTGLESETAPPPRILTGVDEFDRVCGGGVVPGSALLIGGDPGVGKSTLLLQVCASAAARGVSCAYISGEEAVEQIRGRADRMGLAKANVSLAAETALRDILDGLKRDNFDLVVIDSIQTMWSDAHEAGPGTVTQVRACATELVRLAKKKGVAILLVGHVTKDGQIAGPRVVEHLVDAVLSFEGERGYPFRILRGAKNRFGATDEIGVFEMGDVGLREVKNPSALFLNEGGERAAGAAVFAGIEGSRPVLVEFQALVAPSAYGTPRRAVVGWDSGRLAMVLAVLEARCGLGFGDKDVYLNVAGGLRITEPAADLAAAAALASSALDVALPQDCVVFGELSLSGEVRPVSRMETRLKEAAKLGFGRALGPLAGLPEGGGALPVAGVARLTDAVRRIGDEIWTSLTLEHHHHHH”, the “soluble on expression in E. coli” value was “not soluble”. To “MAREELRRHLVGLIERSRVVIFSKSYCPHSTRVKELFSSLGVECNVLELDQVDDGARVQEVLSEITNQKTVPNIFVNKVHVGGCDQTFQAYQSGLLQKLLQEDLAYDAENLYFQ” belongs “soluble”; to “MARGLNRVFLIGALATRPDMRYTPAGLAILDLTLAGQDLLLSDNGGEREVSWYHRVRLLGRQAEMWGDLLDQGQLVFVEGRLEYRQWEREGERRSELQIRADFLDPLDDRGKERAEDSRGQPRLRAALNQVFLMGNLTRDPELRYTPQGTAVARLGLAVNERRQGAEERTHFVEVQAWRDLAEWAAELRKGDGLFVIGRLVNDSWTSSSGERRFQTRVEALRLERPTRGPAQAGGSRSREVQTGGVDIDEGLEDFPPEEELPF”, “soluble”. To “MARKAESSNRLDDAARAGWLYYVAGRTQDEIASVMGISRQSAQRLVSLAMAERLIKVRLDHPIAACLEMAARLKEKYDLKHVDVVPSDPGSDSTTVGIAEAGAAEIERWLKSAEPVVLAIGTGRTLKATIDQLPSMECPQHRIVSLTGNIRLDGSAAYYNVIFSMADTIKARHFPMPLPVLVSSPEEREVLHKQSLVQIALELGAEADAAFVGVGELGPDAPLCEDGFLARDEMARLMAAGAAGEICGWMFDHEGVLLPDSINERVASVPLPPRDRASVIGIAKGRRKHEALRAALKGRIINGLVTDEATADYLLRV” belongs “not soluble”. With “MARKALIEKAKRTPKFKVRAYTRCVRCGRARSVYRFFGLCRICLRELAHKGQLPGVRKASW” the entry was “soluble”; with “MARKLFTSESVTEGHPDKICDQISDAVLDAIFSQDPMARVACETAVTTGLVLVTGEITTNCYVDIPKIVRSTIREIGYDRAKYGFDCDTCAVLTSIDEQSPDIAMGVNKALEAKTGEMSDEEIEAIGAGDQGMMFGFACDETPELMPMPISLAHKLAMRLSQVRKNGTLNYLRPDGKSQVTVEYDGDKPVRVDTVLISTQHGPEVDYDTIKRDVIEHVIKPVIPAELLDSKTKYLVNPTGRFVIGGPQGDSGLTGRKIIVDTYGGYARHGGGAFSGKDPTKVDRSAAYAARYVAKNIVAAGLARKCEVQLAYAIGVARPVSVRVDTFGTGIIPEEKIESLVNKYFDLRPAGIIKTLDLRRPIYKQTAAYGHFGRTDIDLPWERTDKPKS”, “not soluble”. On to “MARLCTHTESGHYLMALDAGTGSVRAVIFDLQGKQIAVGQAEWQHLAVPDVPGSMEFDLAKNWQLACQCIRQALQKAAIPATAIAAVSACSMREGIVIYDSNGEPIWACANVDARAAHEVSELKELYDNTFEEEVYRCSGQTLALSAIPRLLWLAHHRPDIYHRASTVTMISDWMAFMLSGELAVDPSNAGTTGLLDLVTRNWKRSLLQMAGLRSDILSPVKETGTLLGHISQKAAEQCDLQAGTPVIVGGGDVQLGCLGLGVVRPAQTAVLGGTFWQQVVNLPAPVTDPNMNVRINPHVIPGMVQTESISFFTGLTMRWFRDAFCAEEKLIAERLGIDAYSLLEDMASRVPPGAYGVMPIFSDVMRFKRWYHAAPSFINLSIDPEKCNKATLFRALEENAAIVSACNLQQIAAFSGVQADSLVFAGGGSKGKLWSQILADVTGLTVHVPVVKEATALGCAIAAGVGVGVWPSLAETGEKLVRWDREHKPNPENFAVYQQAREKWQAVYQDQRALVDGGLTTSLWKAPGL”, for which the “soluble on expression in E. coli” value is recorded as “not soluble”. Consider “MARPANTLQSLAELNGKAPSRRQLNIQHWNTAEGARVLFVEARELPMFDLRVTFAAGSSQDGGTPGLAALTNAMLNEGVAGKDVTAIAEGFEGLGADFGNGSYRDMAVASLRSLSAKDKREPALKLFTEVAGKPTFPEDALKRIKNQMLAGFEYEKQNPGKIAGKALFGKLYGDHPYAHPSDGTAESITGISLAQLRAFHAKAYTGGNAVIALVGDLSRAEAEAIAAQVSAGLPKGPALAAPAQPADAKAGLTHIDFPSKQTHLMLAELGIDRQDPDWPALSMGNQILGGGAFGTRLMSEVREKRGLTYGVYSVFSPMQVRGPFMINLQTRAELSEGTLKLVQGILADYLKTGPTQQELDDAKRELAGSFPLSNASNASIVGQLGAIGFYNLPLTWLEDFMQQSQALTVEQVKAAMNKHLSADKLVIVTVGPKVPQKPLEHHHHHH”, for which the “soluble on expression in E. coli” value is given as “not soluble”. To “MARSLVFIAIALIAVVSAGPGDKDQPKPDHKKGPGGFHHFFPKFFGNVSEEGKKEIGALFKNQDLTLAEVDTKIAALAEKYGVAAAYKEHKAKEATNEAEAKKKTASVISNLSAVSAKLTAIHDNKSLTRKAQREAIAALRKEHEAEVAALDFIGKRSHGFGKHHGRHGKGNGKFFGKRGGNKMERKTAAQ” belongs “not soluble”; to “MARTQYRAEEDDDEKVVDVINEDEEDENKSDIDEDFDEDEDEDEDKQESVKAALEKERKRGEALTNLERQAKRLGVSFDAAKAIKSGMSVEKAKNVVLTAAVSKSASLKLSTTAPHRDGTSKEKIHAKWETAWRAIK”, “not soluble”. With “MARVEGELFKIARASLEAEPIAWRYRYVKKGVMDSQGELWVGDWKYVPKKEDCNDRPNYEIQALFTAPPVPVTSEELVKAVHFYEQLKRENPPASGNQINGLTMSVKRPAN” the entry was “not soluble”; with “MASDNLSAVLYKQNDLRLEQRPIPEPKEDEVLLQMAYVGICGSDVHYYEHGRIADFIVKDPMVIGHEASGTVVKVGKNVKHLKKGDRVAVEPGVPCRRCQFCKEGKYNLCPDLTFCATPPDDGNLARYYVHAADFCHKLPDNVSLEEGALLEPLSVGVHACRRAGVQLGTTVLVIGAGPIGLVSVLAAKAYGAFVVCTARSPRRLEVAKNCGADVTLVVDPAKEEESSIIERIRSAIGDLPNVTIDCSGNEKCITIGINITRTGGTLMLVGMGSQMVTVPLVNACAREIDIKSVFRYCNDYPIALEMVASGRCNVKQLVTHSFKLEQTVDAFEAARKKADNTIKVMISCRQG”, “soluble”.
